# Source: IntAct's records for PubMed 9819391
# How the values were obtained:
# [1] = biological target: crk_human CRK (UniProt P46108)
# [2] = biological target: src_chick SRC (UniProt P00523)
# [3] = biological target: src_chick SRC (UniProt P00523); remark: listed apart in the source
# crk_human CRK, sequence (P46108 whole entry): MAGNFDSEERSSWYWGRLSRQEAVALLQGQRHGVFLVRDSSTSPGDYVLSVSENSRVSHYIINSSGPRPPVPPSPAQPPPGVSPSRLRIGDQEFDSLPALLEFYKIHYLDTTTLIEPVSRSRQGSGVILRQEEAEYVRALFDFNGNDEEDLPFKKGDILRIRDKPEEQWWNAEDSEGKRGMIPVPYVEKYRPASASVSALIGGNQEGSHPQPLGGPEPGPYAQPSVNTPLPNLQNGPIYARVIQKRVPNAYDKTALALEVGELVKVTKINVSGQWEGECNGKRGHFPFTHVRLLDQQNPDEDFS
# Arf-GAP with SH3 domain, ANK repeat and PH domain-containing protein 1 (Mus musculus), Q9QWY8-1 R811A, sequence (Q9QWY8 whole entry R811A, the tested form may be a part): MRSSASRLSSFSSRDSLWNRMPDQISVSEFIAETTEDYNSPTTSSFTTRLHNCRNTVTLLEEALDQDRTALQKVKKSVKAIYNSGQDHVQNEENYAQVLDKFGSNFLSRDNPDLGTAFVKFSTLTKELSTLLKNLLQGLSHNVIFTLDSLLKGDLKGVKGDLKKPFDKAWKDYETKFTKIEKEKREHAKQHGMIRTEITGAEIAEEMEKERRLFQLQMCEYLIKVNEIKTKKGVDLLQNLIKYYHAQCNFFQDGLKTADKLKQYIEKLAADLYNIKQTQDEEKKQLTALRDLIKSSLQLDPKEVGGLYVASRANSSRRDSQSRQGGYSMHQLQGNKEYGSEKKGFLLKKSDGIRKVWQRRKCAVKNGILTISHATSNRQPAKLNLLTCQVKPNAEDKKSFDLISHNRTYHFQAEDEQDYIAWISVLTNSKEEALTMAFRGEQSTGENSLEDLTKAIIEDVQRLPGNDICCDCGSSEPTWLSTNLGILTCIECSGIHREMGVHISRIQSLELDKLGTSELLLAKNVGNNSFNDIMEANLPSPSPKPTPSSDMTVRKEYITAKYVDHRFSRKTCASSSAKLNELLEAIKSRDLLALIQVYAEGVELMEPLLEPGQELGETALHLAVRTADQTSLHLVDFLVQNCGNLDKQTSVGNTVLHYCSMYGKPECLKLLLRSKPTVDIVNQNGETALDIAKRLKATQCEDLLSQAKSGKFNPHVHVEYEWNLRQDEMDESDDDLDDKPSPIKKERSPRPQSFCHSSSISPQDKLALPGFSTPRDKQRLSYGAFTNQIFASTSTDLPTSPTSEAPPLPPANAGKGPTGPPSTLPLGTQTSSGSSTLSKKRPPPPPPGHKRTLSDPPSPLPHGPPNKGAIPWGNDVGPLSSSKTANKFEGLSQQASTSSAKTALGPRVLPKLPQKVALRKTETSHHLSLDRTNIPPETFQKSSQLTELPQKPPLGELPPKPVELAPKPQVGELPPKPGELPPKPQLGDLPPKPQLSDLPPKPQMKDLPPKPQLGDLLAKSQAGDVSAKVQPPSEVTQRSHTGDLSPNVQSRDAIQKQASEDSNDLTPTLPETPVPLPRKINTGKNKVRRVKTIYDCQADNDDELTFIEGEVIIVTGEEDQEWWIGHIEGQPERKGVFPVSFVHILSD
# Arf-GAP with SH3 domain, ANK repeat and PH domain-containing protein 1 (Mus musculus), Q9QWY8-1 P910A;P913A, sequence (Q9QWY8 whole entry P910A/P913A, the tested form may be a part): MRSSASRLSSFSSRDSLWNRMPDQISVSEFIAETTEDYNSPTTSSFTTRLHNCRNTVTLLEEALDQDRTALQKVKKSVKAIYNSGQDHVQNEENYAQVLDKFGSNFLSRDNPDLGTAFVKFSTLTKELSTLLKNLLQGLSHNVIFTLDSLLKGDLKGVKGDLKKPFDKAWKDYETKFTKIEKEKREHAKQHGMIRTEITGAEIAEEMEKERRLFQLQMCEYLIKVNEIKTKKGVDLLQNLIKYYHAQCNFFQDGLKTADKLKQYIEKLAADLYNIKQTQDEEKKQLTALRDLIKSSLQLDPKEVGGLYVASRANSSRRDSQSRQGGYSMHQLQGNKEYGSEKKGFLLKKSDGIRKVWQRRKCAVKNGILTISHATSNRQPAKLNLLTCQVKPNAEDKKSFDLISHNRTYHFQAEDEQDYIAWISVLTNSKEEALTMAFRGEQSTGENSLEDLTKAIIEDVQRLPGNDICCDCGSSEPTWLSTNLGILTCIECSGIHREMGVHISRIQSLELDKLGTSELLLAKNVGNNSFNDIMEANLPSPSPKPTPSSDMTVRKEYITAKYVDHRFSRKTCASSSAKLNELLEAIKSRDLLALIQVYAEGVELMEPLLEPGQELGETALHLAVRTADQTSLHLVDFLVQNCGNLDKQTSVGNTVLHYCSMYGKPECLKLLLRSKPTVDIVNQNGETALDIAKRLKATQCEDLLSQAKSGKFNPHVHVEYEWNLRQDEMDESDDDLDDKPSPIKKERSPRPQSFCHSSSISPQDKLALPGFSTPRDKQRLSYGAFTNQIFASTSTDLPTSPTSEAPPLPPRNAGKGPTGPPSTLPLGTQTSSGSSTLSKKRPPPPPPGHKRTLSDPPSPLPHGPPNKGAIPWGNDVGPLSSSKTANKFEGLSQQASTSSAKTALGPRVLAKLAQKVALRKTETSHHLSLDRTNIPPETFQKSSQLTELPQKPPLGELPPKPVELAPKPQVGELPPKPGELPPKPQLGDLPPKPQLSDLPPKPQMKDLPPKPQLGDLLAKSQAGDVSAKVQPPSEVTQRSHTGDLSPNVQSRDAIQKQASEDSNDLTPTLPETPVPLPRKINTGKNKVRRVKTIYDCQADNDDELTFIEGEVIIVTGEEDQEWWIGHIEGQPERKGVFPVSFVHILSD
# Arf-GAP with SH3 domain, ANK repeat and PH domain-containing protein 1 (Mus musculus), Q9QWY8-2 R811A;P849A;P853A, sequence (Q9QWY8 other isoform, or with tags, fused parts or gaps R811A;P849A;P853A): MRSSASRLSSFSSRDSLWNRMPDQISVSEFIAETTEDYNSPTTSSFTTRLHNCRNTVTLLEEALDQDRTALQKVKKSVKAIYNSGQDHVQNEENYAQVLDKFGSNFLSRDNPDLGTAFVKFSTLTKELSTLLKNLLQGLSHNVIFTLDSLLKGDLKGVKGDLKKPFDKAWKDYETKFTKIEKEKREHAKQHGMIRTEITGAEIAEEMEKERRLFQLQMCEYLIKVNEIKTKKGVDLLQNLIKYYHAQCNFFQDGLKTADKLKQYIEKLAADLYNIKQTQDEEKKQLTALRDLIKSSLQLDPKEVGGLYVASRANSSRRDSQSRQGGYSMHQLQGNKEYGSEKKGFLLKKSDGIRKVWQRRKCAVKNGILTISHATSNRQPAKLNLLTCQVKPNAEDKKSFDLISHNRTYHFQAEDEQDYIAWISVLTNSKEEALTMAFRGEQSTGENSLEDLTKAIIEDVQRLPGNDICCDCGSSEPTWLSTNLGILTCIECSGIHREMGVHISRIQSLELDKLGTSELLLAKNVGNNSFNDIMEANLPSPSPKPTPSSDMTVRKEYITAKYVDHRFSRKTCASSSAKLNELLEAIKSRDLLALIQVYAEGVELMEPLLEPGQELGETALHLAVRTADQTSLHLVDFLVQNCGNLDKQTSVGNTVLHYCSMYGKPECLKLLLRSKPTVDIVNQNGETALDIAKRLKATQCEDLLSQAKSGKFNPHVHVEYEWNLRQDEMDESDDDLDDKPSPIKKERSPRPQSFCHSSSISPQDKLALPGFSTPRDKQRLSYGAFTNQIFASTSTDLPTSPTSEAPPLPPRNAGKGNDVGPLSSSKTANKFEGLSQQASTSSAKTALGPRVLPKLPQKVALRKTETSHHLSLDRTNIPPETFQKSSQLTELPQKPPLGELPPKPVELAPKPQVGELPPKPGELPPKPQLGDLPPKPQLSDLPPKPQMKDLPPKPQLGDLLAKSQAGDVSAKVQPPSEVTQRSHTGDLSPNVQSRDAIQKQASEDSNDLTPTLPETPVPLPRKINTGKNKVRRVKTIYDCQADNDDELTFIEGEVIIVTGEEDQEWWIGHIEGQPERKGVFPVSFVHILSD
# Arf-GAP with SH3 domain, ANK repeat and PH domain-containing protein 1 (Mus musculus), Q9QWY8-1 R811A;P910A;P913A, sequence (Q9QWY8 whole entry R811A/P910A/P913A, the tested form may be a part): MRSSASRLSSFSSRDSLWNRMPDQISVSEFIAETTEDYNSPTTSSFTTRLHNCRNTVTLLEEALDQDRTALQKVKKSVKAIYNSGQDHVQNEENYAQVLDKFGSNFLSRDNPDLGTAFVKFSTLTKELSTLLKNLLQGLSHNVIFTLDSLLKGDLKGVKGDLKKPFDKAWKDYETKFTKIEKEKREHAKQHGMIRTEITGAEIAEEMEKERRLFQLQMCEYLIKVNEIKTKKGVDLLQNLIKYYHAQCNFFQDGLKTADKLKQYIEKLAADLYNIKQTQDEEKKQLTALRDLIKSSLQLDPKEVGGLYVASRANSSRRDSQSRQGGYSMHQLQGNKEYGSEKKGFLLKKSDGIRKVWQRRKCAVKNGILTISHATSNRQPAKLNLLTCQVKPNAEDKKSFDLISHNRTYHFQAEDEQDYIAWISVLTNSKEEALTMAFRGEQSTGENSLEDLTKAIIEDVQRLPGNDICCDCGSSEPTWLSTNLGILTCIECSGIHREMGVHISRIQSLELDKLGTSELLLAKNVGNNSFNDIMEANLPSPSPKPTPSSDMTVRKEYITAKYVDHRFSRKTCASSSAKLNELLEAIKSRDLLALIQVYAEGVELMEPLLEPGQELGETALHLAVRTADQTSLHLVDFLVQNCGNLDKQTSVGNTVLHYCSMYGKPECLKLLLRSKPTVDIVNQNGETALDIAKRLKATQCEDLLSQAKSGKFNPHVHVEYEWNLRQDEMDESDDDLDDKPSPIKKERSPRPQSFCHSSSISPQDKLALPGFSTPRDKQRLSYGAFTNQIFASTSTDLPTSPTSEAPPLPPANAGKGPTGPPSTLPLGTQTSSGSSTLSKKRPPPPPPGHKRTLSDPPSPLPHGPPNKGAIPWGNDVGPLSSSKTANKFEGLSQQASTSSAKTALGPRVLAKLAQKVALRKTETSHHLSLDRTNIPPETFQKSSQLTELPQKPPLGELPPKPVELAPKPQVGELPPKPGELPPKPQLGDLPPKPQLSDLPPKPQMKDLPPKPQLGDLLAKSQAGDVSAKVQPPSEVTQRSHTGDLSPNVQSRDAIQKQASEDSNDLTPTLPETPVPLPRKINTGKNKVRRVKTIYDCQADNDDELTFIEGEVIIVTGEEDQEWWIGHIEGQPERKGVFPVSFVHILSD
effect of a mutation on the interaction [1],effect of a mutation on the interaction [2],effect of a mutation on the interaction [3],Substance
decreasing interaction,decreasing interaction,–,"Arf-GAP with SH3 domain, ANK repeat and PH domain-containing protein 1 (Mus musculus), Q9QWY8-1 P910A;P913A"
decreasing interaction,decreasing interaction,–,"Arf-GAP with SH3 domain, ANK repeat and PH domain-containing protein 1 (Mus musculus), Q9QWY8-1 R811A"
disrupting interaction,–,–,"Arf-GAP with SH3 domain, ANK repeat and PH domain-containing protein 1 (Mus musculus), Q9QWY8-1 R811A;P910A;P913A"
–,–,disrupting interaction,"Arf-GAP with SH3 domain, ANK repeat and PH domain-containing protein 1 (Mus musculus), Q9QWY8-2 R811A;P849A;P853A"
